± gives the standard deviation of the averaged measurements.
Legend:
[1] = tested on: Saccharomyces cerevisiae; experiment: protein stability index of tFT-peptide fusion (C-terminal peptide) (PSI (0-1 scale)); higher = more stable (slower turnover)
Description: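 MPS profiling in S. cerevisiae of the tFT-X12 degron library: putative degron peptides plus stable controls, 12 aa, fused to the C-terminus of a sfGFP-mCherry timer. Cells are FACS-sorted into 8 mCherry/sfGFP bins and deep-sequenced. PSI runs from 0 (unstable) to 1 (stable). Backgrounds are wild type, das1Δ and doa10Δ at 30 °C, and wild type, das1Δ, cdc34-1 and cdc53-1 at 37 °C; 2-3 technical replicates each.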

[2] = tested on: Saccharomyces cerevisiae; experiment: as above; details: genetic background: wild type; temperature: 30 C
[3] = genetic background: cdc34-1, temperature: 37 C
[4] = genetic background: cdc53-1, temperature: 37 C
[5] = genetic background: das1 deletion, temperature: 30 C
[6] = genetic background: das1 deletion, temperature: 37 C
[7] = genetic background: doa10 deletion, temperature: 30 C
[8] = genetic background: wild type, temperature: 30 C
[9] = genetic background: wild type, temperature: 37 C
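Further: PSI is a weighted mean of sequencing reads over stability bins, variants kept only with over 10 reads, mCherry proximal and sfGFP distal, peptide attached via GGGS linker.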

Sequence | protein stability index [1, 3] | protein stability index [1, 4] | protein stability index [1, 5] | protein stability index [1, 6] | protein stability index [1, 7] | protein stability index [1, 8] | protein stability index [1, 9] | protein stability index [2]
AYFPSQRVHHLM | 0.637 ± 0.046 | 0.706 ± 0.066 | 0.661 ± 0.016 | 0.765 ± 0.013 | 0.144 ± 0.0018 | 0.174 ± 0.033 | 0.374 ± 0.03 | 0.333 ± 0.017
GIISMYVARRLG | 0.594 ± 0.037 | 0.689 ± 0.0079 | 0.661 ± 0.015 | 0.69833 ± 0.00068 | 0.149 ± 0.016 | 0.173 ± 0.034 | 0.3 ± 0.022 | 0.285 ± 0.019
VFFCVLRVFFSA | 0.0798 ± 0.024 | 0.161 ± 0.015 | 0.175 ± 0.024 | 0.291 ± 0.0075 | 0.114 ± 0.013 | 0.132 ± 0.029 | 0.195 ± 0.0091 | 0.193 ± 0.017
GGVVGGVGVYDG | 0.702 ± 0.012 | 0.7445 ± 0.0015 | 0.635 ± 0.016 | 0.748 ± 0.019 | 0.65 ± 0.021 | 0.65 ± 0.02 | 0.706 ± 0.015 | 0.707 ± 0.019
GALVVSWAEVLC | 0.5163 ± 0.0026 | 0.525 ± 0.01 | 0.402 ± 0.024 | 0.555 ± 0.0083 | 0.372 ± 0.014 | 0.402 ± 0.037 | 0.57 ± 0.02 | 0.503 ± 0.012
RAFFLLYCTLWA | 0.0997 ± 0.0085 | 0.204 ± 0.039 | 0.163 ± 0.027 | 0.266 ± 0.012 | 0.132 ± 0.016 | 0.161 ± 0.025 | 0.24 ± 0.0077 | 0.206 ± 0.04
RPNTFRTRAKAL | 0.636 ± 0.013 | 0.712 ± 0.019 | 0.619 ± 0.026 | 0.734 ± 0.017 | 0.145 ± 0.003 | 0.168 ± 0.039 | 0.333 ± 0.057 | 0.274 ± 0.081
SGPNASRFYAPI | 0.672 ± 0.04 | 0.733 ± 0.0081 | 0.634 ± 0.013 | 0.72486 ± 8.5e-06 | 0.657 ± 0.034 | 0.656 ± 0.037 | 0.704 ± 0.011 | 0.696 ± 0.041
RARFMLGVLLST | 0.5525 ± 0.0044 | 0.617 ± 0.033 | 0.487 ± 0.028 | 0.5834 ± 0.0054 | 0.314 ± 0.0056 | 0.352 ± 0.024 | 0.49366 ± 3e-05 | 0.451 ± 0.021
VFWVLVSFLFYV | 0.339 ± 0.011 | 0.406 ± 0.012 | 0.307 ± 0.028 | 0.4496 ± 0.0013 | 0.281 ± 0.014 | 0.3 ± 0.018 | 0.4059 ± 0.0036 | 0.346 ± 0.023
RSRCVRAAVKVG | 0.612 ± 0.036 | 0.659 ± 0.025 | 0.569 ± 0.043 | 0.70656 ± 0.00048 | 0.177 ± 0.0018 | 0.216 ± 0.023 | 0.427 ± 0.026 | 0.324 ± 0.0059
RRVPVHIHFSLF | 0.627 ± 0.0066 | 0.707 ± 0.028 | 0.691 ± 0.014 | 0.732 ± 0.039 | 0.156 ± 0.0052 | 0.194 ± 0.021 | 0.393 ± 0.033 | 0.291 ± 0.03
LLVKFTFLIIFT | 0.146 ± 0.0079 | 0.257 ± 0.089 | 0.191 ± 0.011 | 0.31 ± 0.019 | 0.27 ± 0.02 | 0.2 ± 0.015 | 0.2767 ± 0.0024 | 0.266 ± 0.025
VFLVGFRVTLDS | 0.267 ± 0.035 | 0.289 ± 0.011 | 0.219 ± 0.025 | 0.404 ± 0.018 | 0.189 ± 0.018 | 0.215 ± 0.033 | 0.419 ± 0.0069 | 0.295 ± 0.0062
FLFFRFLVGCCF | 0.406 ± 0.0083 | 0.396 ± 0.0095 | 0.339 ± 0.032 | 0.4545 ± 0.0039 | 0.29943 ± 0.00022 | 0.311 ± 0.0085 | 0.427 ± 0.017 | 0.3731 ± 0.003
GLSLVCWIVVLG | 0.153 ± 0.033 | 0.202 ± 0.066 | 0.189 ± 0.037 | 0.347 ± 0.017 | 0.1899 ± 0.0016 | 0.178 ± 0.032 | 0.318 ± 0.0055 | 0.306 ± 0.014
IWWFKELRVCRV | 0.506 ± 0.014 | 0.559 ± 0.013 | 0.435 ± 0.022 | 0.5589 ± 0.0019 | 0.4128 ± 0.0013 | 0.424 ± 0.024 | 0.539 ± 0.017 | 0.49 ± 0.013
YVFSPWSCWASV | 0.366 ± 0.019 | 0.396 ± 0.0044 | 0.416 ± 0.0081 | 0.361 ± 0.0059 | 0.4213 ± 0.00065 | 0.4048 ± 0.0027 | 0.351 ± 0.015 | 0.423 ± 0.015
FSSWPFFSFYLS | 0.681 ± 0.032 | 0.689 ± 0.021 | 0.617 ± 0.036 | 0.743 ± 0.026 | 0.415 ± 0.034 | 0.392 ± 0.024 | 0.6048 ± 0.0018 | 0.518 ± 0.036
SCCIYVALCRWL | 0.473 ± 0.024 | 0.573 ± 0.0093 | 0.43 ± 0.024 | 0.5601 ± 0.0013 | 0.323 ± 0.0071 | 0.353 ± 0.035 | 0.48 ± 0.0084 | 0.382 ± 0.016

Sequence | protein stability index [1, 3] | protein stability index [1, 4] | protein stability index [1, 5] | protein stability index [1, 6] | protein stability index [1, 7] | protein stability index [1, 8] | protein stability index [1, 9] | protein stability index [2]
RALYLLALVGVS | 0.234 ± 0.0075 | 0.254 ± 0.02 | 0.223 ± 0.034 | 0.371 ± 0.0042 | 0.169 ± 0.0096 | 0.214 ± 0.024 | 0.3484 ± 0.0029 | 0.362 ± 0.11
GHYQGVCHRRIC | 0.657 ± 0.026 | 0.725 ± 0.019 | 0.64 ± 0.028 | 0.7667 ± 0.0054 | 0.18 ± 0.016 | 0.176 ± 0.024 | 0.368 ± 0.033 | 0.34 ± 0.015
LVGVLLAVWSVV | 0.2387 ± 0.00038 | 0.294 ± 0.039 | 0.249 ± 0.039 | 0.412 ± 0.0087 | 0.168 ± 0.0025 | 0.197 ± 0.019 | 0.338 ± 0.045 | 0.308 ± 0.017
WCCCVSGFVWWM | 0.563 ± 0.012 | 0.6296 ± 0.0022 | 0.491 ± 0.03 | 0.633 ± 0.021 | 0.458 ± 0.011 | 0.465 ± 0.015 | 0.602 ± 0.017 | 0.526 ± 0.11
CVFFPFLGVCYV | 0.4206 ± 0.0039 | 0.43047 ± 8.6e-05 | 0.333 ± 0.025 | 0.473 ± 0.0093 | 0.288 ± 0.01 | 0.336 ± 0.019 | 0.451 ± 0.0089 | 0.425 ± 0.017
VRMMYSVQVWCG | 0.0466 ± 0.011 | 0.138 ± 0.03 | 0.0633 ± 0.029 | 0.165 ± 0.012 | 0.02927 ± 0.00015 | 0.0222 ± 0.0046 | 0.0439 ± 0.0023 | 0.0363 ± 0.036
WVWFGCVLGYRV | 0.571 ± 0.022 | 0.561 ± 0.025 | 0.426 ± 0.026 | 0.566 ± 0.021 | 0.442 ± 0.039 | 0.413 ± 0.027 | 0.531 ± 0.019 | 0.484 ± 0.022
CDSRIRKIWSYL | 0.836 ± 0.069 | 0.883 ± 0.019 | 0.774 ± 0.021 | 0.834 ± 0.026 | 0.2666 ± 0.0024 | 0.284 ± 0.039 | 0.494 ± 0.0054 | 0.36 ± 0.0036
SIFFLVPLVFLS | 0.4422 ± 0.0014 | 0.532 ± 0.027 | 0.408 ± 0.035 | 0.584 ± 0.015 | 0.134 ± 0.0055 | 0.141 ± 0.019 | 0.216 ± 0.055 | 0.214 ± 0.043
LVCLFFLSSLFF | 0.547 ± 0.05 | 0.606 ± 0.0081 | 0.495 ± 0.046 | 0.602 ± 0.022 | 0.46 ± 0.016 | 0.464 ± 0.02 | 0.58 ± 0.017 | 0.4609 ± 0.0043
KALFPGLLLCAF | 0.168 ± 0.0027 | 0.188 ± 0.0038 | 0.239 ± 0.02 | 0.292 ± 0.012 | 0.204 ± 0.0091 | 0.232 ± 0.022 | 0.268 ± 0.017 | 0.307 ± 0.014
YYLVKCVYLRTT | 0.413 ± 0.013 | 0.4509 ± 0.0038 | 0.371 ± 0.029 | 0.504 ± 0.0098 | 0.155 ± 0.02 | 0.175 ± 0.0092 | 0.3201 ± 0.00022 | 0.254 ± 0.032
CVLLRPGFLVLV | 0.1771 ± 0.0015 | 0.148 ± 0.011 | 0.207 ± 0.021 | 0.278 ± 0.013 | 0.2144 ± 0.0018 | 0.166 ± 0.014 | 0.216 ± 0.016 | 0.234 ± 0.011
VFILGFLCLLFF | 0.403 ± 0.03 | 0.428 ± 0.014 | 0.342 ± 0.017 | 0.497 ± 0.077 | 0.362 ± 0.045 | 0.334 ± 0.024 | 0.445 ± 0.054 | 0.355 ± 0.036
FVLFSIFHFFLW | 0.424 ± 0.084 | 0.438 ± 0.039 | 0.362 ± 0.051 | 0.528 ± 0.041 | 0.356 ± 0.0048 | 0.347 ± 0.016 | 0.47 ± 0.0094 | 0.382 ± 0.027
GPFVRSALIFIF | 0.535 ± 0.04 | 0.582 ± 0.045 | 0.467 ± 0.021 | 0.603 ± 0.034 | 0.304 ± 0.0055 | 0.343 ± 0.026 | 0.547 ± 0.022 | 0.407 ± 0.018
VVVRARVFFHIF | 0.285 ± 0.012 | 0.444 ± 0.015 | 0.361 ± 0.022 | 0.538 ± 0.006 | 0.0651 ± 0.0018 | 0.0583 ± 0.025 | 0.07 ± 0.014 | 0.0561 ± 0.048
ALWRAWLRLRIW | 0.517 ± 0.054 | 0.591 ± 0.03 | 0.582 ± 0.019 | 0.733 ± 0.016 | 0.143 ± 0.0041 | 0.124 ± 0.0037 | 0.0985 ± 0.012 | 0.205 ± 0.0025
VCVYLVSLPYLA | 0.451 ± 0.015 | 0.462 ± 0.025 | 0.39 ± 0.026 | 0.522 ± 0.021 | 0.239 ± 0.018 | 0.232 ± 0.03 | 0.381 ± 0.011 | 0.303 ± 0.035

Source: the supplement of paper PMC10724198
